{"source": "patent US20110217282", "proteins": {"B1": {"name": "MazF (protein)", "chain": "MVSRYVPDMGDLIWVDFDPTKGSEQAGHRPAVVLSPFMYNNKTGMCLCVPCTTQSKGYPFEVVLSGQERDGVALADQVKSIAWRARGATKKGTVAPEELQLIKAKINVLIG"}}, "key": {"[1]": {"biological_target": "T1, C-terminal histidine-tagged YgiT", "T1 chain": "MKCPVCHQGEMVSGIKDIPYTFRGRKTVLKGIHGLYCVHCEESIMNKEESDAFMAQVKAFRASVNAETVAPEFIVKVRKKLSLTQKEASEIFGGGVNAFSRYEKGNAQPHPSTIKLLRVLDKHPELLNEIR"}, "MazE, P0AE72": {"biological_target": "T2, MazE, P0AE72", "T2 chain": "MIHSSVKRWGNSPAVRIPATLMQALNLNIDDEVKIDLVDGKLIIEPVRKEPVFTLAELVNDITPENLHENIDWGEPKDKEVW"}}}
{"protein": "B1", "values": [{"measurement": "cleavage of MS2 RNA (agarose gel)", "setting": "[1]", "value": "when MazF was incubated with purified YgiT-H, its activity was not inhibited"}, {"measurement": "cleavage of MS2 RNA (agarose gel)", "setting": "MazE, P0AE72", "value": "its activity was completely inhibited when it was preincubated with purified MazE, the antidote of MazF"}]}
